The results in this text go back to patent publication US20120088276.

For data set [1], the target named is T1, E. coli (strain K12) RecA protein, wild type.
T1 chain: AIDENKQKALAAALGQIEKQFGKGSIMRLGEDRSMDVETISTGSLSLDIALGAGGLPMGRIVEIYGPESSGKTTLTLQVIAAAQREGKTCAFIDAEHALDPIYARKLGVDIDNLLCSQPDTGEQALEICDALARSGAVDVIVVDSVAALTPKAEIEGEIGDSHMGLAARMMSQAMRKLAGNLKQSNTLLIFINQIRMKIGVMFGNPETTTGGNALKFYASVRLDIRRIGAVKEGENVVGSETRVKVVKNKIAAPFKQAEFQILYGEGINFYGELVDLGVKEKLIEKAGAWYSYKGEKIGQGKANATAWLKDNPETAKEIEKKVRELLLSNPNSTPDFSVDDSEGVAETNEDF

B1: bacteriophage P1 Ref protein (wild type) (protein)
chain: MKTIEQKIEQCRKWQKAARERAIARQREKLADPVWRESQYQKMRDTLDRRIAKQKERPPASKTRKSAVKIKSRGLKGRTPTAEERRIANALGALPCIACYMHGVISNEVSLHHIAGRTAPGCHKKQLPLCRWHHQHAAPAEVREKYPWLVPVHADGVVGGKKEFTLLNKSEMELLADAYEMANIMH
On to B1, for which, in data set [1], the “nuclease activity (degradation of M13mp18 circular ssDNA, agarose gel)” value is “the nuclease activity depended on both Ref and active RecA filaments”. In addition, the “targeted cleavage of both strands of duplex DNA at RecA-created D-loops (restriction analysis, agarose gel)” value with RecA E38K mutant protein is on record as “the Ref-induced breaks in the circular double stranded DNA occur where the RecA-bound oligonucleotide invaded the duplex DNA to form a D-loop”.
